Results as given in IntAct's records for PubMed 31515488.

B1: Heat shock factor protein 2 (Homo sapiens), Q03933 (parent)
chain: MKQSSNVPAFLSKLWTLVEETHTNEFITWSQNGQSFLVLDEQRFAKEILPKYFKHNNMASFVRQLNMYGFRKVVHIDSGIVKQERDGPVEFQHPYFKQGQDDLLENIKRKVSSSKPEENKIRQEDLTKIISSAQKVQIKQETIESRLSELKSENESLWKEVSELRAKHAQQQQVIRKIVQFIVTLVQNNQLVSLKRKRPLLLNTNGAQKKNLFQHIVKEPTDNHHHKVPHSRTEGLKPRERISDDIIIYDVTDDNADEENIPVIPETNEDVISDPSNCSQYPDIVIVEDDNEDEYAPVIQSGEQNEPARESLSSGSDGSSPLMSSAVQLNGSSSLTSEDPVTMMDSILNDNINLLGKVELLDYLDSIDCSLEDFQAMLSGRQFSIDPDLLVDLFTSSVQMNPTDYINNTKSENKGLETTKNNVVQPVSEEGRKSKSKPDKQLIQYTAFPLLAFLDGNPASSVEQASTTASSEVLSSVDKPIEVDELLDSSLDPEPTQSKLVRLEPLTEAEASEATLFYLCELAPAPLDSDMPLLDS
B2: Proton-coupled zinc antiporter SLC30A2 (Homo sapiens), Q9BRI3 (parent)
chain: MEAKEKQHLLDARPAIRSYTGSLWQEGAGWIPLPRPGLDLQAIELAAQSNHHCHAQKGPDSHCDPKKGKAQRQLYVASAICLLFMIGEVVGGYLAHSLAVMTDAAHLLTDFASMLISLFSLWMSSRPATKTMNFGWQRAEILGALVSVLSIWVVTGVLVYLAVERLISGDYEIDGGTMLITSGCAVAVNIIMGLTLHQSGHGHSHGTTNQQEENPSVRAAFIHVIGDFMQSMGVLVAAYILYFKPEYKYVDPICTFVFSILVLGTTLTILRDVILVLMEGTPKGVDFTAVRDLLLSVEGVEALHSLHIWALTVAQPVLSVHIAIAQNTDAQAVLKTASSRLQGKFHFHTVTIQIEDYSEDMKDCQACQGPSD
B3: U6 snRNA-associated Sm-like protein LSm7 (Homo sapiens), Q9UK45 (parent)
chain: MADKEKKKKESILDLSKYIDKTIRVKFQGGREASGILKGFDPLLNLVLDGTIEYMRDPDDQYKLTEDTRQLGLVVCRGTSVVLICPQDGMEAIPNPFIQQQDA
B4: Four and a half LIM domains protein 2 (Homo sapiens), Q14192 (parent)
chain: MTERFDCHHCNESLFGKKYILREESPYCVVCFETLFANTCEECGKPIGCDCKDLSYKDRHWHEACFHCSQCRNSLVDKPFAAKEDQLLCTDCYSNEYSSKCQECKKTIMPGTRKMEYKGSSWHETCFICHRCQQPIGTKSFIPKDNQNFCVPCYEKQHAMQCVQCKKPITTGGVTYREQPWHKECFVCTACRKQLSGQRFTARDDFAYCLNCFCDLYAKKCAGCTNPISGLGGTKYISFEERQWHNDCFNCKKCSLSLVGRGFLTERDDILCPDCGKDI
partner: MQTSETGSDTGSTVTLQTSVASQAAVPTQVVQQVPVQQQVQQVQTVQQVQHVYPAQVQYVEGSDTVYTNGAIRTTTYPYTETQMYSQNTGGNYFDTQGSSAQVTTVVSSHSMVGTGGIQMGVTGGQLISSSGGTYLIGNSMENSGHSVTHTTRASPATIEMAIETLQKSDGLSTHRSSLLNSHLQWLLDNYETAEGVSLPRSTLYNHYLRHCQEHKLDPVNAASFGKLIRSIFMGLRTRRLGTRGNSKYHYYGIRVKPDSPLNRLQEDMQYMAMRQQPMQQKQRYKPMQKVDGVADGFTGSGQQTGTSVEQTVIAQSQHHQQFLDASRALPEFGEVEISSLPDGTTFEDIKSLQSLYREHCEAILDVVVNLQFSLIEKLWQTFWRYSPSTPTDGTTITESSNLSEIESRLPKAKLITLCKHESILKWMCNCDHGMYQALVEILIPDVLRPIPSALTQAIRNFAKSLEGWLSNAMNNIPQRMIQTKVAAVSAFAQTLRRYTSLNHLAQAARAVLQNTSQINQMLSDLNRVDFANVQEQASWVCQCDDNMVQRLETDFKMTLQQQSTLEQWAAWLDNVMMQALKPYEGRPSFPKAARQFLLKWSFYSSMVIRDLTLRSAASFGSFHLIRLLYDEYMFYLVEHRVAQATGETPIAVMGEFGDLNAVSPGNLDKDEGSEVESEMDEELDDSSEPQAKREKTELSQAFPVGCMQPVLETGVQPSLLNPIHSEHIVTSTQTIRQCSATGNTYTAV
B5: MIF4G domain-containing protein (Homo sapiens), A9UHW6 (parent)
chain: MGEPSREEYKIQSFDAETQQLLKTALKDPGAVDLEKVANVIVDHSLQDCVFSKEAGRMCYAIIQAESKQAGQSVFRRGLLNRLQQEYQAREQLRARSLQGWVCYVTFICNIFDYLRVNNMPMMALVNPVYDCLFRLAQPDSLSKEEEVDCLVLQLHRVGEQLEKMNGQRMDELFVLIRDGFLLPTGLSSLAQLLLLEIIEFRAAGWKTTPAAHKYYYSEVSD
partner: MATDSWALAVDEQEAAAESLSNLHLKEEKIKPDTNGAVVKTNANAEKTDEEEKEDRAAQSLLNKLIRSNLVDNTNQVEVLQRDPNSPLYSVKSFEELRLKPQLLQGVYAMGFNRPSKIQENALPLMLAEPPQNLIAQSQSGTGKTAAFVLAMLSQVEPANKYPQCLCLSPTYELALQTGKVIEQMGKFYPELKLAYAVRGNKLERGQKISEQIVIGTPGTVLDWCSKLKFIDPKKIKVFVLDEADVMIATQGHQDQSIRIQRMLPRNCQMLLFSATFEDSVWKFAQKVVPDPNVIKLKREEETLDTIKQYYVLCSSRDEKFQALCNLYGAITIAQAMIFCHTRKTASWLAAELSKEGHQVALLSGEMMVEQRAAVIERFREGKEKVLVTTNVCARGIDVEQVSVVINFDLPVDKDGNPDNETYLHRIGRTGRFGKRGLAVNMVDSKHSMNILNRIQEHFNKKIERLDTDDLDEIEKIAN
B6: Isoform 1 of NF-kappa-B inhibitor beta (Homo sapiens), Q15653-1 (parent)
chain: MAGVACLGKAADADEWCDSGLGSLGPDAAAPGGPGLGAELGPGLSWAPLVFGYVTEDGDTALHLAVIHQHEPFLDFLLGFSAGTEYMDLQNDLGQTALHLAAILGETSTVEKLYAAGAGLCVAERRGHTALHLACRVGAHACARALLQPRPRRPREAPDTYLAQGPDRTPDTNHTPVALYPDSDLEKEEEESEEDWKLQLEAENYEGHTPLHVAVIHKDVEMVRLLRDAGADLDKPEPTCGRSPLHLAVEAQAADVLELLLRAGANPAARMYGGRTPLGSAMLRPNPILARLLRAHGAPEPEGEDEKSGPCSSSSDSDSGDEGDEYDDIVVHSSRSQTRLPPTPASKPLPDDPRPV
partner: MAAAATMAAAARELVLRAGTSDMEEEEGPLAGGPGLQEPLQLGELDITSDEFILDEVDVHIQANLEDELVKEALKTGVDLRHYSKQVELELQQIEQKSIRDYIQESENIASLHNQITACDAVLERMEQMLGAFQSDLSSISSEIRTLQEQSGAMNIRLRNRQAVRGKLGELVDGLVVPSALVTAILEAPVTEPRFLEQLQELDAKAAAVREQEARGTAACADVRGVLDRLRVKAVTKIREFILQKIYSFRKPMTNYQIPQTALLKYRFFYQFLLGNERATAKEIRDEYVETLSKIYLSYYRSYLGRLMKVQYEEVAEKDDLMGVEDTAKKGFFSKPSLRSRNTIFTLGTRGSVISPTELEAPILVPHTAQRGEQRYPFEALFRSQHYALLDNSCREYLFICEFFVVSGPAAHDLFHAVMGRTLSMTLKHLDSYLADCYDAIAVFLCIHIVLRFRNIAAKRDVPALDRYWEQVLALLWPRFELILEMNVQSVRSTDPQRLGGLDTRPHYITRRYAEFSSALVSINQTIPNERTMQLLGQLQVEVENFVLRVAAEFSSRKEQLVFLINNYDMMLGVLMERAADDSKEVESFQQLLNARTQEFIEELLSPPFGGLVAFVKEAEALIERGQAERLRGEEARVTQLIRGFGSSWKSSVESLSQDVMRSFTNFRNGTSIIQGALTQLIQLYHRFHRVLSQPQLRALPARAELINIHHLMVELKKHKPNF
B7: 26S proteasome non-ATPase regulatory subunit 9 (Homo sapiens), O00233 (parent)
chain: MSDEEARQSGGSSQAGVVTVSDVQELMRRKEEIEAQIKANYDVLESQKGIGMNEPLVDCEGYPRSDVDLYQVRTARHNIICLQNDHKAVMKQVEEALHQLHARDKEKQARDMAEAHKEAMSRKLGQSESQGPPRAFAKVNSISPGSPASIAGLQVDDEIVEFGSVNTQNFQSLHNIGSVVQHSEGKPLNVTVIRRGEKHQLRLVPTRWAGKGLLGCNIIPLQR

Variants of: B1
Settings: with mtus2_human MTUS2, Q5JR59
Sequence of mtus2_human MTUS2, Q5JR59 (Q5JR59 whole entry): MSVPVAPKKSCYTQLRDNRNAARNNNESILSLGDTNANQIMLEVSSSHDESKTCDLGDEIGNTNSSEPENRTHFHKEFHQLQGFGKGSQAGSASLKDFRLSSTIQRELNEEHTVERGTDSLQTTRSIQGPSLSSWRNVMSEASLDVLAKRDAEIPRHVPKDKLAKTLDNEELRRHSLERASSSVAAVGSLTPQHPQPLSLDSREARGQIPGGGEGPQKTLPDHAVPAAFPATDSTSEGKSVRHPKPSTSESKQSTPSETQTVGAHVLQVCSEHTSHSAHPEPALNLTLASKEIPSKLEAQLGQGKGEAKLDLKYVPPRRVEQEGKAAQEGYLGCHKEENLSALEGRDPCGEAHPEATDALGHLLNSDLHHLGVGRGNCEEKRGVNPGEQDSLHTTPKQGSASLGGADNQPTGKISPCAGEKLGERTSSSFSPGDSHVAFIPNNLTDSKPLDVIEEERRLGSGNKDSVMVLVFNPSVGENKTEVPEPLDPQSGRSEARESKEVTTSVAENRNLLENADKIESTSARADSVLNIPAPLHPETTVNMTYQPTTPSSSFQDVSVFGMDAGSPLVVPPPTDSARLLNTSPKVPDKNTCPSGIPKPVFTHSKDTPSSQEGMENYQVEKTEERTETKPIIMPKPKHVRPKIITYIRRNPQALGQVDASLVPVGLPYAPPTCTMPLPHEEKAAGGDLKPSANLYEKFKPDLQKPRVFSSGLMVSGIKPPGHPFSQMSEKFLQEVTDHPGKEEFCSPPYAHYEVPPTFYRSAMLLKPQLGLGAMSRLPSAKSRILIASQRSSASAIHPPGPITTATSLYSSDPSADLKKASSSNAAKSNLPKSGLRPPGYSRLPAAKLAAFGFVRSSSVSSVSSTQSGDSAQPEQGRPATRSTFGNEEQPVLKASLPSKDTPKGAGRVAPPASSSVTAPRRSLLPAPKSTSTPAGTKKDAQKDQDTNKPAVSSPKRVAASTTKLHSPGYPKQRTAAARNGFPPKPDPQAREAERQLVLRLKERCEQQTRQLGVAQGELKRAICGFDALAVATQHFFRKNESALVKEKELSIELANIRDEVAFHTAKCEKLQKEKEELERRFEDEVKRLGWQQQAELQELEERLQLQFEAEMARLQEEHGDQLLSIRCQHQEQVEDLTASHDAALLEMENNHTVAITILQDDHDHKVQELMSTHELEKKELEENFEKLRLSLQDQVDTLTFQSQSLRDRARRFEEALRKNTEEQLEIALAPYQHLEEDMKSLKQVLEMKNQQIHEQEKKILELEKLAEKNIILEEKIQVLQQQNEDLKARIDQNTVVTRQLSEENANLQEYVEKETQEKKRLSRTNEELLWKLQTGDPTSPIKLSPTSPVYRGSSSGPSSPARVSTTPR

effect of a mutation on the interaction | Variant
with no effect | V287I
with no effect | Q34H

Variants of: B1
Settings: with nup62_human NUP62, P37198
Sequence of nup62_human NUP62, P37198 (P37198 whole entry): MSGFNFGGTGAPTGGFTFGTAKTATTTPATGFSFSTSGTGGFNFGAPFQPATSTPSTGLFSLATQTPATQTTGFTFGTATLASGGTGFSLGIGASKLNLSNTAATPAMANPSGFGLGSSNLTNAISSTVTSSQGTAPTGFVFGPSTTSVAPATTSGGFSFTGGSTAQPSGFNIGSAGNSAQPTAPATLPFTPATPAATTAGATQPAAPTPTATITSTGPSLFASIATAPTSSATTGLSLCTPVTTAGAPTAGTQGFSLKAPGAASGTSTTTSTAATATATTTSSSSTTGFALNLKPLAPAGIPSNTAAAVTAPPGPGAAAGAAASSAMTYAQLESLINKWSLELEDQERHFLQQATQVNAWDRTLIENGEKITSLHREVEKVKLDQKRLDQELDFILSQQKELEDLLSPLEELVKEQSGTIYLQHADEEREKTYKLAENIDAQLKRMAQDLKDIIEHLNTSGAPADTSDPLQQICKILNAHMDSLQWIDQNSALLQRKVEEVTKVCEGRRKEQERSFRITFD

effect of a mutation on the interaction | Variant
with no effect | V287I
with no effect | Q34H

Variants of: B1
Settings: with wdr5_human WDR5, P61964

effect of a mutation on the interaction | Variant
with no effect | V287I
with no effect | Q34H

Variants of: B1
Settings: with tpm3_human TPM3, P06753
Sequence of tpm3_human TPM3, P06753 (P06753 whole entry): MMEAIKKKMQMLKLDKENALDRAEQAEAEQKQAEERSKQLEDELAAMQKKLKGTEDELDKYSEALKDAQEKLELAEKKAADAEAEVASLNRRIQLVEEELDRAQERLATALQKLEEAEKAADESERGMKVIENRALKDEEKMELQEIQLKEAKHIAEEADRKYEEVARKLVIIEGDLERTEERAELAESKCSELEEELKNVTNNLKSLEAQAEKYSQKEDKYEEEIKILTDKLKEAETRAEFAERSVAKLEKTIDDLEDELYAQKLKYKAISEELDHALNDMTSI

effect of a mutation on the interaction | Variant
with no effect | V287I
with no effect | Q34H

Variants of: B2
Settings: with tnr12_human TNFRSF12A

effect of a mutation on the interaction | Variant
with no effect | T181M

Variants of: B2
Settings: with ada33_human ADAM33, Q9BZ11
Sequence of ada33_human ADAM33, Q9BZ11 (Q9BZ11 whole entry): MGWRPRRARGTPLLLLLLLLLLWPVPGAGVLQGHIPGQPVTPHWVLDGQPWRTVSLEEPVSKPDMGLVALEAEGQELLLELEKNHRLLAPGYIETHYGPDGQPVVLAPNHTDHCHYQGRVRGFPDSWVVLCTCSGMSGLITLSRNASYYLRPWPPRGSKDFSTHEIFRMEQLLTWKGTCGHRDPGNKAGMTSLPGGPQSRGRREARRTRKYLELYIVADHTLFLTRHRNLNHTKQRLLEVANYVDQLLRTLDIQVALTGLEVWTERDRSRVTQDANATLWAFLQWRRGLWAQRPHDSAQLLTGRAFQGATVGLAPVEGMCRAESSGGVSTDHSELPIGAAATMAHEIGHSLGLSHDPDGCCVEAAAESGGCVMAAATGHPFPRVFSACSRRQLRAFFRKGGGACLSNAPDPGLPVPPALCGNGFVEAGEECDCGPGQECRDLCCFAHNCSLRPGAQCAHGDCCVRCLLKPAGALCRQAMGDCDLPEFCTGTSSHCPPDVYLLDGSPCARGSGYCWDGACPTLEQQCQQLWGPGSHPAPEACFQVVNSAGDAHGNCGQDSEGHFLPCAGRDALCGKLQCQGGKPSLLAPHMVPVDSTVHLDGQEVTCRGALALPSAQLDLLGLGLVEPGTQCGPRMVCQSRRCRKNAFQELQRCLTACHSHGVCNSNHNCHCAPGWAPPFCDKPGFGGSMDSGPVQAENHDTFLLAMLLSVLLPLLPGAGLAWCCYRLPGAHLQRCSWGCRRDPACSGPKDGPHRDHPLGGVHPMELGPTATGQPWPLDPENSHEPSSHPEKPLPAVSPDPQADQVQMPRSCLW

effect of a mutation on the interaction | Variant
with no effect | T181M

Variants of: B2
Settings: with ccl4_human CCL4, P13236
Sequence of ccl4_human CCL4, P13236 (P13236 whole entry): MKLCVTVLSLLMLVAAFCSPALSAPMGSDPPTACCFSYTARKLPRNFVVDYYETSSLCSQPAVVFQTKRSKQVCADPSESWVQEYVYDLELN

effect of a mutation on the interaction | Variant
with no effect | T181M

Variants of: B3
Settings: with lsm5_human LSM5, Q9Y4Y9
Sequence of lsm5_human LSM5, Q9Y4Y9 (Q9Y4Y9 whole entry): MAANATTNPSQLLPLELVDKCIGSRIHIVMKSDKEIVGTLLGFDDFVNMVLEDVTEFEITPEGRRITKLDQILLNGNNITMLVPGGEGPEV

effect of a mutation on the interaction | Variant
with no effect | G78A

Variants of: B4
Settings: with rfx3_human RFX3, P48380

effect of a mutation on the interaction | Variant
with no effect | A37S
with no effect | N95K

Variants of: B5
Settings: with dd19b_human DDX19B

effect of a mutation on the interaction | Variant
with no effect | E160K

Variants of: B6
Settings: with vps52_human VPS52, Q8N1B4

effect of a mutation on the interaction | Variant
with no effect | Q69L

Variants of: B7
Settings: with prs6a_human PSMC3, P17980
Sequence of prs6a_human PSMC3, P17980 (P17980 whole entry): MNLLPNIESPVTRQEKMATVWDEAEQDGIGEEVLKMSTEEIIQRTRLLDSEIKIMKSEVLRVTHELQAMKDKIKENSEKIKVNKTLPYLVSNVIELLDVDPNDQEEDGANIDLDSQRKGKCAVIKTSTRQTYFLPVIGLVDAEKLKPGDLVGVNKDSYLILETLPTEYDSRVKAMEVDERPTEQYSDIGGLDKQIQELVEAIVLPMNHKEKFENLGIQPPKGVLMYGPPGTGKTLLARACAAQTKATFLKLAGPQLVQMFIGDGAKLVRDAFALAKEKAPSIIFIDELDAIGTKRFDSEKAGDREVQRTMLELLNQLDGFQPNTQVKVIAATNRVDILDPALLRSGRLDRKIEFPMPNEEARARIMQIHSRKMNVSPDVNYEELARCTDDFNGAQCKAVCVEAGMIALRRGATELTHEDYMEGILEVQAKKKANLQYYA

effect of a mutation on the interaction | Variant
with no effect | R134W
with no effect | E197G

Variants of: B7
Settings: with prs10_human PSMC6, P62333
Sequence of prs10_human PSMC6, P62333 (P62333 whole entry): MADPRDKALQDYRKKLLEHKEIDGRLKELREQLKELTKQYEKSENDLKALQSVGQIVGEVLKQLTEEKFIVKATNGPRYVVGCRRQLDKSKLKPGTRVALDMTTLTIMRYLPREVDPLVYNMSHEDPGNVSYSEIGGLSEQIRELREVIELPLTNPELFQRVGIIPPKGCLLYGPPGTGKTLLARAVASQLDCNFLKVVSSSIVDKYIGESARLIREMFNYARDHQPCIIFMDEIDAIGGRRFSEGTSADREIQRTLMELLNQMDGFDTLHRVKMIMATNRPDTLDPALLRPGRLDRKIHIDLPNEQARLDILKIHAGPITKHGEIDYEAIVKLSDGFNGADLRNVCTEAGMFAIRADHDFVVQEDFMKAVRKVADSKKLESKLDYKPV

effect of a mutation on the interaction | Variant
with no effect | R134W

Variants of: B7
Settings: with spn90_human NCKIPSD

effect of a mutation on the interaction | Variant
with no effect | R134W
with no effect | E197G

Variants of: B7
Settings: with cc136_human CCDC136, Q96JN2

effect of a mutation on the interaction | Variant
with no effect | V17A
